According to paper PMC6994465, “Structural basis of proton-coupled potassium transport in the KUP family” (Nature Communications, 2020):

Target: the molecule itself
Test: cryo-EM structure; KimA in SMA lipid particles (SMALPs) at 1.1 mg/mL, 50 mM Tris pH 8, 100 mM KCl, with 50 uM cyclic di-AMP; C2 symmetry; 3.7 A

B1: KimA from Bacillus subtilis (natural protein)
chain: MYHSIKRFLIGKPLKSQAAGEQKLTKLKALAMLSSDALSSVAYGTEQILIILATISAAAFWYSIPIAVGVLILLLALILSYRQIIYAYPQGGGAYIVSKENLGEKPGLIAGGSLLVDYILTVAVSISAGTDAITSAFPALHDYHVPIAIFLVLVIMILNLRGLSESASILAYPVYLFVVALLVLIAVGLFKLMTGQIDQPAHHTSLGTPVAGITLFLLLKAFSSGCSALTGVEAISNAIPAFKNPPARNAARTLAMMGILLAILFSGITVLAYGYGTAPKPDETVVSQIASETFGRNVFYYVIQGVTSLILVLAANTGFSAFPQLAFNLARDQYMPRMFTVRGDRLGFSNGIIFLGFASIVLIILFGGQTEHLIPLYAVGVFIPFTLSQTGMCMKWIKQKPKGWIGKMLINSCGALISFMVLSILFVTKFNVVWPVLIFMPIVVLLFFAIKNHYTAVGEQLRIVDKEPEEIKGTVVIVPVAGVTTVVQKSIHYAKSLSDQVIAVHVSFDREQEKKFEKRWEELNNGVRLVTLHSSYRSLVHPFDKFLETVEAKAKKEQFSVMVLFPQFITKKRWHTILHNQSAFLLRVRLFWKKDIMVATLPYHFKK
notes: KimA, potassium importer of the KUP family, Bacillus subtilis; gene amplified from genomic DNA; Homodimer in the cryo-EM structure; The model holds 572 of 607 residues (it lacks the first 26 residues and residues 480-481, 534-538 and 607); Primers are in the Supplementary Methods; also called wild-type KimA; potassium importer KimA; source: E. coli LB2003, purified (membranes solubilised with SMA …)
stoichiometry N: 2
